T1: human PD-L2 on CHO cells (human, UniProt Q9BQ51 20-273)
T1 sequence: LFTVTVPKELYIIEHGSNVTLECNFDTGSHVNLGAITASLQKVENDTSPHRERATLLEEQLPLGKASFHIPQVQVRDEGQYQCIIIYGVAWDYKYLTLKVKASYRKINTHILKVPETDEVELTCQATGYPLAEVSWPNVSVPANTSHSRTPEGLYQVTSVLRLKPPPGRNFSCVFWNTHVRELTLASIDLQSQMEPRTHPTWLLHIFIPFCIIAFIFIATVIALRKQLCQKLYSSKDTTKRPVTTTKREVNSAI

T2: Human PD-L2-HIS (human, UniProt Q9BQ51 20-220)
T2 construct: also called His-tagged human PD-L2; not shown: His tag
T2 sequence: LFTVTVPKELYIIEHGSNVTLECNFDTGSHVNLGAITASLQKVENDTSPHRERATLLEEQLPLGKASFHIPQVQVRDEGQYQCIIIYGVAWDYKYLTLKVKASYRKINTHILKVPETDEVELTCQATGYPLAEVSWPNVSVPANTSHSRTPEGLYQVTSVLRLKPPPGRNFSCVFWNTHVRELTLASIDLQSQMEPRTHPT

T3: Cyno PD-L2-Fc (cynomolgus, UniProt A0A2K5U5Z4 20-220)
T3 construct: also called cynomolgus PD-L2; not shown: Fc
T3 sequence: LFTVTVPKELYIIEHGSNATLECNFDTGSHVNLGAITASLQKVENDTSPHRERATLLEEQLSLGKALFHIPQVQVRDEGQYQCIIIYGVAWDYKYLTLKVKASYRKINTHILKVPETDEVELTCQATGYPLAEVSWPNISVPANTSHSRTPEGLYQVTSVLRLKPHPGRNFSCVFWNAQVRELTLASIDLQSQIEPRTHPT

T4: Mouse PD-L2-Fc (mouse, UniProt Q9WUL5 20-219, limits assumed)
T4 construct: also called murine PD-L2; not shown: Fc
T4 sequence (looked up): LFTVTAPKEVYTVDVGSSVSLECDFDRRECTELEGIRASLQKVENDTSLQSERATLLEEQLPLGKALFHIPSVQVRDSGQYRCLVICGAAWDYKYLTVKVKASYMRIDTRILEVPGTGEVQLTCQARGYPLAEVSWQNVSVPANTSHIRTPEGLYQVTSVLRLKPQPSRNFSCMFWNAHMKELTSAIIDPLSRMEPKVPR

T5: Human PD-L2-Fc (human, UniProt Q9BQ51 20-220)
T5 construct: also called dimeric PD-L2; PD-L2 (dimeric ligand); not shown: human IgG1 Fc constant region
T5 sequence: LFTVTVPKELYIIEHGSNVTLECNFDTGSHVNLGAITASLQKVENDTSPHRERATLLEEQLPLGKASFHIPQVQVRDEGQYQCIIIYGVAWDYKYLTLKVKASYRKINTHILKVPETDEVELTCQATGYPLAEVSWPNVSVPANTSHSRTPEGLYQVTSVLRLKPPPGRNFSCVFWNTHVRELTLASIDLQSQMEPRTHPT


Legend:
human PD-L1 on CHO cells [1] = target: T6, human PD-L1 on CHO cells (human, UniProt Q9NZQ7 19-290); experiment: cell-based or functional assay
T6 sequence (Q9NZQ7 19-290 limits assumed): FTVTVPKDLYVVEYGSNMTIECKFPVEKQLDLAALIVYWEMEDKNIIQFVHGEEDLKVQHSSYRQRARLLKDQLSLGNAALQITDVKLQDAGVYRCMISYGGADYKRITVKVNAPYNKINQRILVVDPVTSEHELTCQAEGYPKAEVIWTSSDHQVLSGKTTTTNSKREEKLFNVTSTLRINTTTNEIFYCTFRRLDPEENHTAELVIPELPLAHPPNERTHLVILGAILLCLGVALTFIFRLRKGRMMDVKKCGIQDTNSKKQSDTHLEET

human PD-L2 on CHO cells [2] = target: T1, human PD-L2 on CHO cells; experiment: cell-based or functional assay
Human PD-L1-HIS [3] = target: T7, Human PD-L1-HIS (human, UniProt Q9NZQ7 19-238); experiment: ForteBio, IgG, monovalent
T7 construct: also called HIS-tagged monovalent PD-L1; His-tagged human PD-L1; not shown: His tag
T7 sequence (Q9NZQ7 19-238 limits assumed): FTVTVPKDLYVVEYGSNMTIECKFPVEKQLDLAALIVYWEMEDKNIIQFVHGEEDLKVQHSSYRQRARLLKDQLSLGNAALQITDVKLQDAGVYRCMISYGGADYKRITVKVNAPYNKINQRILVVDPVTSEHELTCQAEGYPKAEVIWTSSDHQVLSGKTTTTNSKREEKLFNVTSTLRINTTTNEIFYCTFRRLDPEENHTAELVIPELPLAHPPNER

Human PD-L2-HIS [4] = target: T2, Human PD-L2-HIS; experiment: ForteBio, IgG, monovalent
Mouse PD-L1-Fc [5] = target: T8, Mouse PD-L1-Fc (mouse, UniProt Q9EP73 19-239, limits assumed); experiment: ForteBio, IgG, avid
T8 construct: also called murine PD-L1; not shown: Fc
T8 sequence (Q9EP73 19-239 limits assumed): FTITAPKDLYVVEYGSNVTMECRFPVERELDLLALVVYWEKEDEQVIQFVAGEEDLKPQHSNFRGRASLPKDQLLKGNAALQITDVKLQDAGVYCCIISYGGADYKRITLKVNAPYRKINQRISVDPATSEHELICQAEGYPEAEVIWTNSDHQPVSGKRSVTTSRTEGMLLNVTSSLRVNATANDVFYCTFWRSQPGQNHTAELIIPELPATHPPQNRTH

Cyno PD-L2-Fc [6] = target: T3, Cyno PD-L2-Fc; experiment: ForteBio, IgG, avid
Mouse PD-L2-Fc [7] = target: T4, Mouse PD-L2-Fc; experiment: ForteBio, IgG, avid
Cyno PD-L1-Fc [8] = target: T9, Cyno PD-L1-Fc (cynomolgus, UniProt G7PSE7 19-238); experiment: ForteBio, IgG, avid
T9 construct: also called cynomolgus PD-L1
T9 sequence (G7PSE7 entry or part of it limits assumed): as the sequence (Q9NZQ7 19-238 limits assumed) above, with A33T, A34S, S62N, R68Q, Q82R, F173L, T185A, T192I, H215L counted along it

Human PD-L2-Fc = target: T5, Human PD-L2-Fc; experiment: ForteBio Octet, IgG, avid
Mouse PD-L1-Fc [9] = target: T8, Mouse PD-L1-Fc; experiment: ForteBio Octet, IgG, avid
Cyno PD-L2-Fc [10] = target: T3, Cyno PD-L2-Fc; experiment: ForteBio Octet, IgG, avid
Mouse PD-L2-Fc [11] = target: T4, Mouse PD-L2-Fc; experiment: ForteBio Octet, IgG, avid
Human PD-L1-Fc = target: T10, Human PD-L1-Fc (human, UniProt Q9NZQ7 19-238); experiment: ForteBio Octet, IgG, avid
T10 construct: also called dimeric PD-L1; PD-L1 (dimeric ligand); not shown: human IgG1 Fc constant region
T10 sequence (Q9NZQ7 19-238 limits assumed): as the sequence (Q9NZQ7 19-238 limits assumed) above

Cyno PD-L1-Fc [12] = target: T9, Cyno PD-L1-Fc; experiment: ForteBio Octet, IgG, avid
Human PD-L2-HIS [13] = target: T2, Human PD-L2-HIS; experiment: ForteBio Octet, IgG, monovalent
Human PD-L1-HIS [14] = target: T7, Human PD-L1-HIS; experiment: ForteBio, IgG, monovalent; remark: listed apart in the source
Human PD-L2-HIS [15] = target: T2, Human PD-L2-HIS; experiment: ForteBio, IgG, monovalent; remark: listed apart in the source
Mouse PD-L1-Fc [16] = target: T8, Mouse PD-L1-Fc; experiment: ForteBio, IgG, avid; remark: listed apart in the source
Cyno PD-L2-Fc [17] = target: T3, Cyno PD-L2-Fc; experiment: ForteBio, IgG, avid; remark: listed apart in the source
Mouse PD-L2-Fc [18] = target: T4, Mouse PD-L2-Fc; experiment: ForteBio, IgG, avid; remark: listed apart in the source
Cyno PD-L1-Fc [19] = target: T9, Cyno PD-L1-Fc; experiment: ForteBio, IgG, avid; remark: listed apart in the source
Human PD-L1-HIS [20] = target: T7, Human PD-L1-HIS; experiment: ForteBio Octet, IgG; column head says Avid
human PD-L1 on CHO cells [21] = target: T6, human PD-L1 on CHO cells; experiment: cell-based or functional assay; remark: listed apart in the source
human PD-L2 on CHO cells [22] = target: T1, human PD-L2 on CHO cells; experiment: cell-based or functional assay; remark: listed apart in the source
Human PD-L1-HIS [23] = target: T7, Human PD-L1-HIS; experiment: ForteBio Octet, IgG; column head says Avid; IgG against Human PD-L1-HIS (head says Avid), not Fab against PD-L1-Fc

| Binder | Kd (Cyno PD-L2-Fc [10]) | Kd (Mouse PD-L2-Fc [11]) | Kd (Cyno PD-L1-Fc [12]) | Kd (Human PD-L2-HIS [13]) | Kd (Mouse PD-L1-Fc [9]) | Kd (Human PD-L1-HIS [14]) | Kd (Human PD-L2-HIS [15]) | Kd (Mouse PD-L1-Fc [16]) | Kd (Cyno PD-L2-Fc [17]) | Kd (Mouse PD-L2-Fc [18]) | Kd (Cyno PD-L1-Fc [19]) | other results |
| --- | --- | --- | --- | --- | --- | --- | --- | --- | --- | --- | --- | --- |
| BiPDL3-14 (antibody, V domains shown, IgG; also called ADI-37464; 37464) VH: QVQLQQWGAGLLKPSETLSLTCAVYGGSLSGYPWSWIRQPPGKGLEWIGETDVSGWTDYNPSLKSRVTISVDTSKNQFSLKLSSVTAADTAVYYCARDGRRMGTPSFDIWGQGTMVTVSS VL: DIQMTQSPSSVSASVGDRVTITCRASQGINSFLAWYQQKPGKAPKLLIYAASSLNSGVPSRFSGSGSGTDFTLTISSLQPEDFATYYCQKAVYFPPTFGGGTKVEIK |  |  |  |  |  |  |  |  |  |  |  | EC50 (read off the curve); Luc Activity, Promega CHO-PDL1/PD-L2 dual cells with NFAT-Luc Jurkat T cells (PD-L1 and PD-L2 not separable) (human PD-L1 on CHO cells [1]): ~2 nM; EC50 (read off the curve); Luc Activity, Promega CHO-PDL1/PD-L2 dual cells with NFAT-Luc Jurkat T cells (PD-L1 and PD-L2 not separable) (human PD-L2 on CHO cells [2]): ~2 nM; Kd (Human PD-L1-HIS [3]): 3.93 nM; Kd (Human PD-L2-HIS [4]): 0.684 nM; Kd (Mouse PD-L1-Fc [5]): 2.34 nM; Kd (Cyno PD-L2-Fc [6]): 0.543 nM; Kd (Mouse PD-L2-Fc [7]): 0.533 nM; Kd (Cyno PD-L1-Fc [8]): 0.371 nM |
| BiPDL4-34 (antibody, V domains shown, Fourth generation, IgG) VH: QVQLVESGGGVIQPGRSLRLSCAASGFTFSAYLMHWVRQAPGKGLEWVAAIGYDGMNKYYADSVKGRFTISRDNSKNTLYLQMNSLRAEDTAVYYCARAGIEYSYAYTDYWGQGTLVTVSS VL: EIVLTQSPGTLSLSPGERATLSCRASQFVYSSDLAWYQQKPGQAPRLLIYGASARAAGIPDRFSGSGSGTDFTLTISRLEPEDFAVYYCMQFGWWPPRTFGGGTKVEIK | 0.739 nM | 5.69 nM | 0.408 nM | 0.932 nM | 0.544 nM | 6.85 nM | 0.932 nM | 0.544 nM | 0.739 nM | 5.69 nM | 0.408 nM | Kd (Human PD-L1-HIS [20]): 2.17 nM |

Further lines, with some results ahead:

| Kd (Cyno PD-L2-Fc [10]) | Kd (Mouse PD-L2-Fc [11]) | Kd (Cyno PD-L1-Fc [12]) | Kd (Human PD-L2-HIS [13]) | Kd (Mouse PD-L1-Fc [9]) | Kd (Human PD-L1-HIS [14]) | Kd (Human PD-L2-HIS [15]) | Kd (Mouse PD-L1-Fc [16]) | Kd (Cyno PD-L2-Fc [17]) | Kd (Mouse PD-L2-Fc [18]) | Kd (Cyno PD-L1-Fc [19]) | Binder | other results |
| --- | --- | --- | --- | --- | --- | --- | --- | --- | --- | --- | --- | --- |
| 0.688 nM | 1.22 nM | 2.34 nM |  |  |  |  |  |  |  |  | BiPDL3-13 (antibody, V domains shown, Third generation, IgG) VH: QVQLQQWGAGLLKPSETLSLTCAVYGGSLSGYPWSWIRQPPGKGLEWIGETDVSGWTDYNPSLKSRVTISVDTSKNQFSLKLSSVTAADTAVYYCARDGRRMGTPSFDIWGQGTMVTVSS VL: DIQLTQSPSSVSASVGDRVTITCRASQGISSWLAWYQQKPGKAPKLLIYAASSLQSGVPSRFSGSGSGTDFTLTISSLQPEDFATYYCQQYVYFPPTFGGGTKVEIK | Kd (Human PD-L2-Fc): 0.431 nM; binding result (Mouse PD-L1-Fc [9]): no binding (tested: 100 nM antigen); Kd (Human PD-L1-Fc): 3.28 nM |
| 0.64 nM | 7.88 nM | 0.508 nM | 0.738 nM | 0.4 nM | 2.26 nM | 0.738 nM | 0.4 nM | 0.64 nM | 7.88 nM | 0.508 nM | BiPDL4-14 (antibody, V domains shown, Fourth generation, IgG) VH: QVQLVESGGGVVQPGRSLRLSCAASGFTFDEYGMHWVRQAPGKGLEWVAVIGYDGLNKYYADSVKGRFTISRDNSKNTLYLQMNSLRAEDTAVYYCARAGIEYSYAYTDYWGQGTLVTVSS VL: EIVLTQSPGTLSLSPGERATLSCRASQFVYSSDLAWYQQKPGQAPRLLIYGASTRKTGIPDRFSGSGSGTDFTLTISRLEPEDFAVYYCLQFGWWPPRTFGGGTKVEIK | EC50 (read off the curve); Fold induction of luciferase, Promega: CHO-PD-L1/PD-L2 dual cells with PD-1 Jurkat reporter cells (PD-L1 and PD-L2 not separable) (human PD-L1 on CHO cells [21]): ~0.3 nM; EC50 (read off the curve); Fold induction of luciferase, Promega: CHO-PD-L1/PD-L2 dual cells with PD-1 Jurkat reporter cells (PD-L1 and PD-L2 not separable) (human PD-L2 on CHO cells [22]): ~0.3 nM; Kd (Human PD-L1-HIS [23]): 0.692 nM |
